# Entries after “also recorded” stand apart in the source; their conditions may differ.
# B1: Nodal: composition that up-regulates SMAD-signaling (protein, UniProt Q96S42 238-347, looked up)
# Nodal homolog: HHLPDRSQLCRKVKFQVDFNLIGWGSWIIYPKQYNAYRCEGECPNPVGEEFHPTNHAYIQSLLKRYQPHRVPSTCCAPVKTKPLSMLYVDNGRVLLDHHKDMIVEECGCL
# B2: TGβ2: TGFβ isoform 2 administered as part of a therapeutic composition (protein)
# chain: ALDAAYCFRNVQDNCCLRPLYIDFKRDLGWKWIHEPKGYNANFCAGACPYLWSSDTQHTKVLSLYNTINPEASASPCCVSQDLEPLTILYYIGNTPKIEQLSNMIVKSCKCS
# B3: TGFβ3: recombinant Transforming Growth Factor beta 3 isoform, injected subconjunctivally (protein)
# chain: ALDTNYCFRNLEENCCVRPLYIDFRQDLGWKWVHEPKGYYANFCSGPCPYLRSSDTTHSTVLGLYNTLNPEASASPCCVPQDLEPLTILYYVGRTPKVEQLSNMVVKSCKCS
# Tests used:
# [1] = Example 2: promotion of re-epithelialization; format: in vivo; details: end point: establishment of a biological barrier or Superficial Punctate Keratitis
# Description: (§1) Compositions can also be administered in effective amounts to promote re-epithelialization, reduce the occurrence and/or severity of ulcers and preserve nerve function (appropriate signal potentiation) and/or integrity (physical state of the nerve itself). Objective measures for re-epithelialization include, without limitation, slit lamp microscopy with fluorescence staining. Objective measures for reduction and/or severity of ulcers include, without limitation, slit lamp microscopy for surface (ir)regularity. Objective measures for preservation of nerve function include corneal sensitivity measures. Objective measures for preservation of nerve integrity include in vitro confocal microscopy to determine the nerve fiber health (length, diameters and branches.)
# (§2) A number of experiments are conducted to further define the role of up-regulation of TGFβ1, TGFβ2, TGFβ3, Serpine 1, fibronectin, lumican, epidermal growth factor ligands, activin and Nodal as well as the down-regulation of sEH/Ephx2 in the promotion of wound healing, promotion of re-epithelialization, reduction of the occurrence and/or severity of ulcers, preservation of nerve function and/or integrity, promotion of eye health and maintenance of vision. In the experiments, each experiment having relevant control conditions, each of the listed compounds is administered as part of a therapeutic composition (including as a direct therapeutic and/or as part of a genetic therapy as described herein).
# [2] = Example 2: occurrence and/or severity of ulcers; format: in vivo; details: end point: slit lamp microscopy for surface (ir)regularity
# Description: as §1, §2
# Serpine 1 = assay: Realtime-PCR for Serpine 1 expression in CECs of TGFβ3 treated mouse corneas; format: in vivo; details: NL and DM mice, 16 or 24 hpw
# Description: (§3) FIGS. 7A-7C. Effects of TGFβ3 on epithelial wound closure in B6 and STZ B6 mouse corneas. […] A 2 mm epithelial wound was made and allowed to heal for 16 h in B6 mice and 24 h in STZ B6 mice, and then fluorescence stained, and photographed. 1) NL cornea injected with PBS, 2) NL corneal injected with TGFβ3, 3) DM (STZ) cornea injected with PBS, 4) DM corneal injected with TGFβ3. (FIG. 7B) Changes in the mean of the remaining wound areas in pixels were calculated by Adobe Photoshop software with p value listed, n=5. (FIG. 7C). CECs collected during wounding (first 2 lanes) and 16 hpw (1, 2) or 24 hpw (3, 4) in PBS (1, 3) and TGFβ3 (2, 4) treated corneas were extracted and subjected to realtime-PCR analysis for Serpine 1 expression, N=3, **p<0.01.
# RNA Extraction and Real-time PCR. For RNA isolation, CECs were scraped off of corneas, with 2 corneas pooled into 1 tube as one sample. RNA was extracted from the collected CECs using RNeasy Mini Kit (QIAGEN). cDNA was generated with an oligo(dT) primer (Invitrogen) followed by analysis using real-time PCR with the Power SYBR Green PCR Master Mix (AB Applied Biosystems), based on the expression of β-actin.
# adult skin wounds = details: failure due to increased angiogenesis in post-surgery skin; cited from earlier work
# [3] = tested on: Smad2/3, TGFβ1, TGFβ2, TGFβ3 in WH CECs; assay: Western blotting of CECs of TGFβ3 treated GK rat corneas; format: in vivo; details: GK rats
# Description: (§4) FIGS. 6A-6C. Effects of TGFβ3 on epithelial wound closure in GK rat corneas. (FIG. 6A) A total of 40 ng recombinant TGFβ3, with PBS as the control, was injected into subconjunctival space at two sites (10 μl each) of GK rats 4 hours prior to wounding. Corneal epithelial wound of 5-mm diameter was made and allowed to heal for 42 h and then fluorescence stained, and photographed. (FIG. 6B) Changes in the mean of the remaining wound areas in pixels were calculated by Adobe Photoshop software with p value listed, n=5. (FIG. 6C). CECs collected during wounding (Con) and 42 hpw in PBS and TGFβ3 treated corneas were extracted and subjected to Western blotting with listed antibodies; two samples out of 5 from post wounding corneas were shown with actin as the internal control. The anti-TGFβ1-3 antibodies recognized both latent (44, 25, 47 kDa, respectively) and active (15, 12, 15 kDa, respectively) forms, giving two bands in Western blotting. These figures are representatives of 5 corneas per condition from 2 independent experiments; ** p<0.01.
# Determination of Protein Expression and Phosphorylation by Western Blot Analysis. The epithelial cells removed during corneal debridement (the control) and post-wound, but prior to wound closure, were collected from NL and DM rat corneas and lysed with radioimmunoprecipitation assay (RIPA) buffer. Protein concentrations were determined using Micro BCA kits. Levels of various proteins or their phosphorylation were determined using specific antibodies. For each condition, two samples were shown with β-actin levels as the internal controls.
# Exogenous TGFβ3 accelerates delayed epithelial wound closure in DM corneas. Whether exogenously-added TGFβ3 in DM corneas accelerates delayed epithelial wound closure in GK and STZ B6 mice was assessed next. […] To assess if exogenously added TGFβ3 affects the isoform expression, antibodies against TGFβ1-3 were used for Western blotting. […] While some elevated active TGFβ3 molecules could be from exogenously added TGFβ3 (15 kDa), the latent form (47 kDa) can only be from endogenous sources, indicating an auto-regulation of TGFβ3 expression in rat corneas.
# GK rat corneas = assay: Epithelial wound closure in GK rat corneas after subconjunctival recombinant TGFβ3; format: in vivo; details: GK rats, 40 ng in 20 μl subconjunctival 4 hours prior to debridement, 5-mm wound, 42 h, vs PBS
# Description: as §4
# Corneal Epithelial Debridement Wound. […]
# Exogenous TGFβ3 accelerates delayed epithelial wound closure in DM corneas. Whether exogenously-added TGFβ3 in DM corneas accelerates delayed epithelial wound closure in GK and STZ B6 mice was assessed next. […]
# STZ B6 mouse corneas = assay: Epithelial wound closure in STZ B6 mouse corneas after subconjunctival recombinant TGFβ3; format: in vivo; details: STZ B6 mice, 14 ng subconjunctival 4 hours prior to wounding, 2 mm wound, 16 and 24 hpw, vs PBS
# Description: as §3
# Corneal Epithelial Debridement Wound. Anesthetized rats and mice were first demarcated with a trephine in the central cornea (5-mm circular wound for rats and 2 mm for mice) and CECs were removed with a blunt scalpel blade under a dissecting microscope (4; 6; 7). The blade with scraped CECs was immediately immersed into liquid nitrogen and the visible ice was collected into a test tube, placed on dry ice and stored at −80° C. The sample was marked as unwounded (UW). Bacitracin ophthalmic ointment was applied to the cornea after surgery to prevent infection. […]
# [4] = tested on: corneas of type 1 DM rats and mice and type 2 DM rats; assay: Epithelial wound healing in DM corneas of three rodent models (summary statements); format: in vivo; details: exogenous TGFβ3
# Description: The described genome-wide cDNA microarrays were used to compare the gene expression profiles of WH versus UW and DM versus NL CECs. […] Without being bound to a single theory, the effects of TGFβs on epithelial wound closure are related to its ability to activate Smad-dependent and -independent pathways, to modulate its own expression, and to mediate target gene expression.
# The altered expression of TGFβ3 was also confirmed in cultured human corneas post wound healing, indicating the relevance of the study. […] While the mechanisms underlying hyperglycemia-suppressed wound-induced TGFβ3 expression is unclear, early inhibitory effects of hyperglycemia on TGFβ3 expression, which differs from that of TGFβ1 (42), may exacerbate the suppression of TGFβ3 up-regulation in response to wounding.
Molecule,Treatment Outcome: Promotes re-epithelialization [1],Treatment Outcome: Reduces occurrence and/or severity of ulcers [2],other results
Activin,Promotes,Reduces occurrence,
TGβ1: TGFβ isoform 1 administered as part of a therapeutic composition,Promotes,Reduces occurrence,
B1,Promotes,Reduces occurrence,
B2,Promotes,Reduces occurrence,
B3,Promotes,Reduces occurrence,"Serpine 1 mRNA levels (Serpine 1): correlated to the levels of TGFβ3 activity; outcome of phase 3 clinical trials as anti-scarring agent (adult skin wounds): considered a failure; Smad2/3 phosphorylation in WH CECs ([3]; 42 hpw): enhancing; TGFβ3 expression (latent form, endogenous) ([3]; WH CECs): increased; TGFβ1 expression ([3]; WH DM CECs): no effects; levels of TGFβ2 ([3]; all samples): low and unchanged; rate of wound closure (GK rat corneas): substantially increasing; rate of epithelial closure (STZ B6 mouse corneas): significantly increased; epithelial wound healing in DM corneas [4]: promotes epithelial wound healing; also recorded: partially restores the healing rate"

# From US20160310572A1, “COMPOSITIONS AND METHODS TO DIAGNOSE DIABETES AND/OR TO TREAT NEGATIVE EFFECTS OF DIABETES” (WAYNE STATE UNIVERSITY, priority 2013, published 2016)
